Data published in paper PMC5651683 (The Biochemical journal, 2017).

Target: His6-Munc18a (rat, UniProt P61765 1-594)
Test: pull-down

His6-Munc18a, sequence (P61765 whole entry): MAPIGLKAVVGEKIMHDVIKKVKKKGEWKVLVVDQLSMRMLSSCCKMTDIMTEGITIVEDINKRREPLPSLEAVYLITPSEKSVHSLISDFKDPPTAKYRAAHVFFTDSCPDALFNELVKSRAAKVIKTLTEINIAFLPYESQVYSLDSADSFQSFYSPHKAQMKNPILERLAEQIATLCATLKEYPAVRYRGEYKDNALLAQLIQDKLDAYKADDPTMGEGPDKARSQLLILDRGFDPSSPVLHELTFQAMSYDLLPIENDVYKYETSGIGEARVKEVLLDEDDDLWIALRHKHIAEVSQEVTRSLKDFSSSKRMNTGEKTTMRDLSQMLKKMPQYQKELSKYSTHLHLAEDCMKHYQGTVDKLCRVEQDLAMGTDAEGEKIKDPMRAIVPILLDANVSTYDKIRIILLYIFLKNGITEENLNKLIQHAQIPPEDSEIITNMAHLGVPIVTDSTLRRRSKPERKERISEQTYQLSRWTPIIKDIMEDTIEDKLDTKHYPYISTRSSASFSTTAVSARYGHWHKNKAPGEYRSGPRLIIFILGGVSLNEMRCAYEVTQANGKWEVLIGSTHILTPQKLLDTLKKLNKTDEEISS

B1: syntaxin3, full-length, liposome-anchored (natural protein, rat, UniProt Q08849 1-289, looked up)
chain: MKDRLEQLKAKQLTQDDDTDEVEIAIDNTAFMDEFFSEIEETRLNIDKISEHVEEAKKLYSIILSAPIPEPKTKDDLEQLTTEIKKRANNVRNKLKSMEKHIEEDEVRSSADLRIRKSQHSVLSRKFVEVMTKYNEAQVDFRERSKGRIQRQLEITGKKTTDEELEEMLESGNPAIFTSGIIDSQISKQALSEIEGRHKDIVRLESSIKELHDMFMDIAMLVENQGEMLDNIELNVMHTVDHVEKARDETKRAMKYQGQARKKLIIIIVIVVVLLGILALIIGLSVGLK
B1: binds.
